Laboratory results from patent US20140127174A1 (ZEALAND PHARMA A S, published 2014).

Assays:
[1] = biological target: human glucagon-like peptide 1 receptor (GLP-1-R) (human, UniProt P43220 24-463); assay: cell-based or functional assay
[2] = biological target: human glucagon receptor (Glucagon-R) (human, UniProt P47871 26-477); assay: cell-based or functional assay

Chain of human glucagon-like peptide 1 receptor (GLP-1-R) (P43220 24-463): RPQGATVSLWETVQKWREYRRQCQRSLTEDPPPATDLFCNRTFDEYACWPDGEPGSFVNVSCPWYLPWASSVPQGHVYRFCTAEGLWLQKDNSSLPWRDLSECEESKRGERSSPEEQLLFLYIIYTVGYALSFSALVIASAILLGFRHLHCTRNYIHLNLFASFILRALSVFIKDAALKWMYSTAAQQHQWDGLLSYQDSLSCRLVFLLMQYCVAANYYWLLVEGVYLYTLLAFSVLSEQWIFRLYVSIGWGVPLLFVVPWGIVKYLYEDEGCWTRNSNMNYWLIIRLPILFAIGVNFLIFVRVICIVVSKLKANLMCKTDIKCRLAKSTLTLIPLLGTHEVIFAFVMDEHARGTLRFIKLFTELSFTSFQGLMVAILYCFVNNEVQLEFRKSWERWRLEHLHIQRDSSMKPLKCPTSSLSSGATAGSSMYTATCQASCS

EC50 of cAMP formation in HEK293 cells expressing human GLP-1-R (corrected to a purity of 50%) [1]: 0.17 nM
EC50 of cAMP formation in HEK293 cells expressing human Glucagon-R (corrected to a purity of 50%) [2]: 0.1 nM
B1: L006-0050 (SEQ ID NO: 12) (peptide)
peptide: H-HSQGTFTSDYSLYLDSRRAKDFIEWLERA-NH2
modifications: not fully specified
